# Measured values from PMC7195466, “A common allosteric mechanism regulates homeostatic inactivation of auxin and gibberellin” (Nature Communications, 2020).
# B1: Oryza sativa gibberellin 2-oxidase 3 (OsGA2ox3), wild type (enzyme, rice (Oryza sativa), UniProt Q8S0S6 1-327, looked up)
# chain: MVVLAGPPAVDHIPLLRSPDPGDVFSGVPVVDLGSPGAARAVVDACERYGFFKVVNHGVATDTMDKAESEAVRFFSQTQPDKDRSGPAYPFGYGSKRIGFNGDMGWLEYLLLALDDASLADACTVPSCAVFRAALNEYISGVRKVAVRVMEAMSEGLGIAQADALSALVTAEGSDQVFRVNHYPPCRALQGLGCSVTGFGEHTDPQLVSVLRSNGTSGLQIALRDGQWVSVPSDRDSFFVNVGDSLQVLTNGRFKSVKHRVVANSLKSRVSFIYFGGPPLAQRIAPLPQLLGEGEQSLYKEFTWDEYKKAAYKSRLGDNRLAQFEKK
# Target: the molecule itself
# Assay: cell-based or functional assay
protein,measurement,value
B1,Vmax of the tetramer and dimer against the monomers (forms separated by gel filtration),> 3 fold
